Reference: article PMC4206950 (Chemical science (Royal Society of Chemistry : 2010), 2014)

B1: SABP2 (Nicotiana tabacum) (protein)
chain: MKEGKHFVLVHGACHGGWSWYKLKPLLEAAGHKVTALDLAASGTDLRKIEELRTLYDYTLPLMELMESLSADEKVILVGHSLGGMNLGLAMEKYPQKIYAAVFLAAFMPDSVHNSSFVLEQYNERTPAENWLDTQFLPYGSPEEPLTSMFFGPKFLAHKLYQLCSPEDLALASSLVRPSSLFMEDLSKAKYFTDERFGSVKRVYIVCTEDKGIPEEFQRWQIDNIGVTEAIEIKGADHMAMLCEPQKLCASLLEIAHKYN
B2: PFE (Pseudomonas fluorescens) (protein)
chain: STFVAKDGTQIYFKDWGSGKPVLFSHGWLLDADMWEYQMEYLSSRGYRTIAFDRRGFGRSDQPWTGNDYDTFADDIAQLIEHLDLKEVTLVGFSMGGGDVARYIARHGSARVAGLVLLGAVTPLFGQKPDYPQGVPLDVFARFKTELLKDRAQFISDFNAPFYGINKGQVVSQGVQTQTLQIALLASLKATVDCVTAFAETDFRPDMAKIDVPTLVIHGDGDQIVPFETTGKVAAELIKGAELKVYKDAPHGFAVTHAQQLNEDLLAFLKR

Tests used:
Test in all cases: purified protein
[1] = system: CC(=O)Oc1ccc([N+](=O)[O-])cc1; type: biochemical, Hevea brasiliensis; settings: BES pH 7.2, 25 °C, about 7 vol% acetonitrile
[2] = system: CC(C)(O)C#N; type: biochemical, Hevea brasiliensis; settings: pH 5 citrate buffer
[3] = system: N#CC(O)c1ccccc1; type: biochemical, Hevea brasiliensis; settings: pH 5.0 citrate buffer, 25 °C, racemic substrate
[4] = system: CC(=O)Oc1ccccc1; settings: […] BES pH 7.2, 5% MeCN
[5] = substrate: CC(=O)Oc1ccc([N+](=O)[O-])cc1; type: biochemical, Nicotiana tabacum; settings: BES pH 7.2, 25 °C, about 7 vol% acetonitrile
[6] = substrate: CC(=O)Oc1ccc([N+](=O)[O-])cc1; type: biochemical, Pseudomonas fluorescens; settings: BES pH 7.2, 25 °C, about 7 vol% acetonitrile

| Molecule | Km [1] | kcat [1] | kcat/Km [1] | further results |
| --- | --- | --- | --- | --- |
| HbHNL (Hevea brasiliensis; E79H) | 0.19 ± 0.04 mM | 0.00133 ± 6.67e-05 s⁻¹ | 6.83 M⁻¹ s⁻¹ |  |
| HbHNL (Hevea brasiliensis; E79H/K236G/T11G) | 0.16 ± 0.02 mM | 0.027 ± 0.000833 s⁻¹ | 168 M⁻¹ s⁻¹ | Km [2]: 6.5 ± 1 mM; kcat [2]: 0.0967 ± 0.00833 s⁻¹; kcat/Km [2]: 14.8 M⁻¹ s⁻¹; Km [3]: 3.2 ± 0.9 mM; kcat [3]: 0.135 ± 0.0167 s⁻¹; kcat/Km [3]: 41.7 M⁻¹ s⁻¹; Km [4]: 2.8 ± 0.4 mM; kcat [4]: 0.02 ± 0.00167 s⁻¹; kcat/Km [4]: 6.83 M⁻¹ s⁻¹ |
| HbHNL (Hevea brasiliensis; E79H/T11G) | 0.14 ± 0.02 mM | 0.00967 ± 0.000333 s⁻¹ | 69.3 M⁻¹ s⁻¹ |  |
| HbHNL (Hevea brasiliensis; K236G/T11G) | 0.15 ± 0.02 mM | 0.00217 ± 6.67e-05 s⁻¹ | 14.3 M⁻¹ s⁻¹ |  |
| HbHNL (Hevea brasiliensis; K236M) | 0.58 ± 0.05 mM | 0.0123 ± 0.000333 s⁻¹ | 21.2 M⁻¹ s⁻¹ |  |
| HbHNL (Hevea brasiliensis; T11G) | 0.20 ± 0.04 mM | 0.0015 ± 8.33e-05 s⁻¹ | 7.5 M⁻¹ s⁻¹ |  |
| B1 |  |  |  | Km [5]: 1.4 ± 0.1 mM |
| B2 |  |  |  | Km [6]: 0.45 mM |
